Results on 4 molecules are retold here after article PMC12701072, “DNA Wrapping by a tetrameric bacterial histone”.

Series [1] addresses HLp from Leptospira perolatii (Leptospira perolatii). Put plainly: crystal structure; DNA-free HLp, 1.30 Å, molecular replacement; dimer in the asymmetric unit, tetramer by crystallographic symmetry.
Series [2] has the same target. Put plainly: SEC-MALS; HLp alone; Superdex 75 Increase 10/300 GL, 25 mM Tris, 50 mM NaCl, 50 mM KCl, pH 7.5; samples incubated at 37 °C for 10 min; oligomer in solution.
The target is the same in series [3]. Put plainly: crystal structure; HLp-DNA_1: HLp co-crystallized with the 30-bp-GC40 DNA fragment, 2.10 Å; dimer in the asymmetric unit, tetramer by crystallographic symmetry.
The target is the same in series [4]. Nature of the series: crystal structure; HLp-DNA_2: HLp co-crystallized with the 30-bp-GC40 DNA fragment, 1.90 Å; monomer in the asymmetric unit, tetramer by crystallographic symmetry.
The target is the same in series [5]. Put plainly: SEC-MALS; HLp incubated with the 30-bp-GC40 DNA fragment at a protein-to-DNA molar ratio of 2:1, 37 °C for 10 min; Superdex 75 Increase 10/300 GL, 25 mM Tris, 50 mM NaCl, 50 mM KCl, pH 7.5.
Another series deals with HMfB (Methanothermus fervidus, UniProt P19267 1-69). Nature of the series: MST; EMSA: 25 mM Tris pH 8.0, 50 mM NaCl, 50 mM KCl, 37 C 10 min; MST: 20 mM Tris pH 8.0, 150 mM NaCl, measured at 25 C (HLp 10 nM DNA, HMfB 20 nM DNA). Conditions: protein: recombinant; chain copies: 4; label: 5'-Cy5 on strand 1; blunt.
Chain of HMfB (P19267 whole entry): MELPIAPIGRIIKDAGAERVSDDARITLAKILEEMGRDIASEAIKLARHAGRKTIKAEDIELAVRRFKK
Series [6] has as its target T1, HLp (Leptospira perolatii, UniProt A0A2M9ZN55 1-63).
T1 sequence: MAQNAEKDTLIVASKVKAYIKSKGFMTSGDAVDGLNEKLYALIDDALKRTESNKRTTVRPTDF
Nature of the series: MST; 20 mM Tris pH 8.0, 150 mM NaCl; EMSA: 25 mM Tris pH 8.0, 50 mM NaCl, 50 mM KCl, 37 C 10 min; MST: 20 mM Tris pH 8.0, 150 mM NaCl, measured at 25 C (HLp 10 nM DNA, HMfB 20 nM DNA). Conditions: protein: recombinant; tags: N-terminal His6, cleaved with TEV protease; chain copies: 4; label: 5'-Cy5 on strand 1; blunt.

Series [7] deals with T1, HLp. Nature of the series: SEC-MALS; complex 69.2 +/- 5.7 kDa: one tetramer with two duplexes; EMSA: 25 mM Tris pH 8.0, 50 mM NaCl, 50 mM KCl, 37 C 10 min; MST: 20 mM Tris pH 8.0, 150 mM NaCl, measured at 25 C (HLp 10 nM DNA, HMfB 20 nM DNA). Conditions: protein: recombinant; tags: N-terminal His6, cleaved with TEV protease; chain copies: 4; blunt.

Regarding “HLp from Leptospira perolatii (natural protein)”, the stoichiometry N in series [1], in series [2], in series [3], in series [4] and in series [5] was 4 in each case.

B1: 80-bp DNA [Cy5] (dsDNA)
DNA 1: CCGTACTGTCGTCTGCGGCCTTTGATTATCAATTAAAGCGTTCTACGGCGTTTTTGATCGCTCAACGTGCGGAGCTAGAT
DNA 2: ATCTAGCTCCGCACGTTGAGCGATCAAAAACGCCGTAGAACGCTTTAATTGATAATCAAAGGCCGCAGACGACAGTACGG
As to B1, the dissociation constant (Kd) in the series with HMfB came out at 580 ± 130 nM; with HLp [6] it was 3180 ± 1060 nM.

B2: 80-bp-GC40 [Cy5] (dsDNA)
DNA 1: TTTAAAGCCGTTTAAAGCCGTTTAAAGCCGTTTAAAGCCGTTTAAAGCCGTTTAAAGCCGTTTAAAGCCGTTTAAAGCCG
DNA 2: CGGCTTTAAACGGCTTTAAACGGCTTTAAACGGCTTTAAACGGCTTTAAACGGCTTTAAACGGCTTTAAACGGCTTTAAA
As to B2, the Kd is 310 ± 80 nM with HMfB and 1240 ± 140 nM with HLp [6].

B3: 30-bp-GC40 (dsDNA)
DNA 1: TTTAAAGCCGTTTAAAGCCGTTTAAAGCCG
DNA 2: CGGCTTTAAACGGCTTTAAACGGCTTTAAA
Consider B3, for which the binding result in the series with HLp [7] is “binds”.
